Data: publication PMC12289918 (Nature Communications, 2025)

Target: T1, K11-HTS-Tail (KLP-11 residues 537-782) (Caenorhabditis elegans, UniProt Q19633 537-782)
T1 sequence (looked up): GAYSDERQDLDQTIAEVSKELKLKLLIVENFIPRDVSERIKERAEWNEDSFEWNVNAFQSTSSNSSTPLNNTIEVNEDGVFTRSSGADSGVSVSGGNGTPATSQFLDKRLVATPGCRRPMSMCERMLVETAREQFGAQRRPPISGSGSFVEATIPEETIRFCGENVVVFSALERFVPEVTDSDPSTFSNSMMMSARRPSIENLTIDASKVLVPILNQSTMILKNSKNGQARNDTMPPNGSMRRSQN
Experiment: SEC-MALS

stoichiometry N: 1
B1: K20-HTS-Tail (KLP-20 residues 527-646) (domain or fragment, Caenorhabditis elegans, UniProt Q965T6 527-646, looked up)
chain: EDHQRQVEAMLDDIRQLRKELLLNIAIIDEYIPVEHVELIEKYVSWSEEHGDWQLKAIAYTGNNMRASAPPAKKEFSNNNQTVPMYYSYRADLGASTAEHRPRTSSKKHRASIRLQQLLT
